This assay addresses MBP-OsIAA10 (rice).

A value given as a limit tells only on which side of the number the result lay.

B1: RDV P2 in RDV-infected rice plants (natural protein)
chain: MAYPNDVRNVWDVYNVFRDVPNREHLIRDIRNGLVTVRNLTNMLTNMERDDQLIIAQLSNMMKSLSIGVEKAQNELSKLKTTDADRAAVLAAYQTSVLNIERNTMLLTGYFKQLVLDLTGYVGASVYPILPFMITGDQSMMVDSIKINMKNVFDDKHEQEIVLPIHPACFVSTITEDTSSVVYADGDELYSVHVRHATMTMYVNVLGETVETRQLSMIGDSIVPDDFAPSLLILRFSQDSVGEVFYLSHDNMKKFLGYGLEYTDKYSIFDVTRRVSTTRNKIPDGFCSVDGVPYLDGWFIYQPSGISADSNICAIYNSYVLDTLRYITECEVDTLRSVYDQTSSTAFSKTDVLTSSLLTMQSNISALSAATPQLANDVITFDSTDLLSLGTVLTVSNEFTADDTILSTSLAGHCQVDYSEGSPQDKSMSISVSCDSSQLASSTVHSYSADILGHGLKGDRNMNLMINVPGLMNPQKVTVDYVYSDGYKLNFASVVAPGAPFWINATLQLSVSPSAHNMLSKLTPLDNDACPGLKAQANTPVLVSMTINLDDATPALGGEVIQNCVFKIHHGDDVYSFVTDFDVISYTSTSGTNCLKLISSVDITSQLPSDMVIYVMNGSPDAAFISGDSVNMSSVDWHQSTSQTVGNYVYTTMKAYWNVTSYDVEARPYTTYVPGKVNFTAVEHADVFVDDYNTGVNSYVIVNSRIYYKGTPLYIEVPSGSFIKVSYFTSPLKNPTVDTYNAEISRNSAYLIKANASLDSVAAMLNNISNRIDAMERLMEPTRAQQIAGVVSSIGGVISLGMPLLGAIVVTIGTIISIADPDKQGIDYHSVANAFMSWCQYAAVCRYEYGLLKRGDEKLDVLSFMPKRVVSDFKNKPDVISLPELGESVLRGSSTDYLDTGINIIYNDMQLLGQGKLSDWLNKTVSKVENNAANFFERNLDKSLANKEVLPMHARVEITQTEKIGDVYRTTILYTGINEGSYLGGDVFASRLGDKNILRMNGFESGPGRFKAIVESTTEVGNFRVVDWTVSGMSRYEIYAAAGEVYPSKDPSHADVQLLYESIVRDLTTRDGSFVLKHHDVLLLPGQLDAFEELIIKNASNYQYAFIGSNCSKLCA
With B1, the half-life of MBP-OsIAA10 in the cell-free degradation assay, RDV-infected against mock-inoculated rice extracts was over 2 fold.

These data come from publication PMC5015840.
